In patent US20240166767A1 (SCIRHOM, published 2024):
Changes are numbered by the printed parent chain.

T1: endogenous human iRhom2 (human, UniProt Q6PJF5 1-856)
T1 sequence: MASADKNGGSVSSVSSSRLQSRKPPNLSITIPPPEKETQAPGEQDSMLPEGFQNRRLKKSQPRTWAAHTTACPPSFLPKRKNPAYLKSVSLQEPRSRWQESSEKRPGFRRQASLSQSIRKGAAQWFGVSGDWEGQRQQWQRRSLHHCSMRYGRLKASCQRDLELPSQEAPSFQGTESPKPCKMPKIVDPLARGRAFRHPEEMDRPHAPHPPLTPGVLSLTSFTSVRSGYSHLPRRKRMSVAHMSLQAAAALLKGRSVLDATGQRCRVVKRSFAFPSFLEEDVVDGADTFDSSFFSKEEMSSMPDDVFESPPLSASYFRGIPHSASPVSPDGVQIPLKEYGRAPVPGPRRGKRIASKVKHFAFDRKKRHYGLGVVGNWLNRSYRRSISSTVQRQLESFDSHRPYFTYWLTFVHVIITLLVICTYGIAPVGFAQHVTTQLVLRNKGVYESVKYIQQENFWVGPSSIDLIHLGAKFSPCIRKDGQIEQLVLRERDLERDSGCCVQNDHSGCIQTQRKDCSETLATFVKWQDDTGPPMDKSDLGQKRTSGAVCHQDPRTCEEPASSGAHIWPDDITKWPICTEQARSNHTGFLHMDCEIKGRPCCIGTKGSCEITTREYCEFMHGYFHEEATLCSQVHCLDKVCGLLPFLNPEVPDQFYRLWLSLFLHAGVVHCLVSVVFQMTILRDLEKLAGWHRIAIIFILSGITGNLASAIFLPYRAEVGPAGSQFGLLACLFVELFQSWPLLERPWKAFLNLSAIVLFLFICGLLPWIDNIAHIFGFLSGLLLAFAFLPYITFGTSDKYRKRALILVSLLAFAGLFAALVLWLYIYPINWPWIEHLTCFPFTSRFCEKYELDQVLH

T2: mouse iRhom2 full length wild type C-terminally tagged with 3 consecutive copies of the T7 epitope (mouse, UniProt Q80WQ6 1-827)
T2 construct: also called miR2-FL-WT-T7; mouse iRhom2 variant
T2 sequence: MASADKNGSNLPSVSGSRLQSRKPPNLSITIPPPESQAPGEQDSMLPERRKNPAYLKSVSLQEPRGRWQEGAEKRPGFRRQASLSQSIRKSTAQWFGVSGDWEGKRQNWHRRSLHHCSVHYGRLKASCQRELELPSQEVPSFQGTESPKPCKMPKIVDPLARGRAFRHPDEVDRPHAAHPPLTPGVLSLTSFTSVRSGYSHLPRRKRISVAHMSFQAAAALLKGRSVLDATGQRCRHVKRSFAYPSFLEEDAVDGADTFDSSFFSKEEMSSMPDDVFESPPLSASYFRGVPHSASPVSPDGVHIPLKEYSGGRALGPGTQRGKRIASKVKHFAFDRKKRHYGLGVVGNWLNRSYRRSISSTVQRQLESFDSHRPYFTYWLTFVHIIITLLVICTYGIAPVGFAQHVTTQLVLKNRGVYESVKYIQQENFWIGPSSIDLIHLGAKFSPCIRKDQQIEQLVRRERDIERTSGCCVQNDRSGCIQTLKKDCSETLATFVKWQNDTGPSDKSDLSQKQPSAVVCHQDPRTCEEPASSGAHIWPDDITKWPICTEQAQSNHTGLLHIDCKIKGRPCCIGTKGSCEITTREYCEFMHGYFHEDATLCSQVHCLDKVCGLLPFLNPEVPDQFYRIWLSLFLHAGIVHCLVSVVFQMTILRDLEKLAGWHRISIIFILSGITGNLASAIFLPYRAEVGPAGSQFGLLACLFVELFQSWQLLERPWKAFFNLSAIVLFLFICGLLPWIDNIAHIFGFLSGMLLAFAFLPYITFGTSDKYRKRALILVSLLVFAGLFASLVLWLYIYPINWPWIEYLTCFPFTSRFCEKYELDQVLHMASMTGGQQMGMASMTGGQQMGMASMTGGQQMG

B1: humanized antibody 16-B-07 (antibody, V domains shown)
VH: QVTLRESGPALVKPTQTLTLTCTFSGFSLSTFALGVGWIRQPPGKALEWLAHIWWDEDKYYNPALKSRLTISKDTSKNQVVLTITNMDPVDTATYYCARITTYYYGMDYWGQGTLVTVSS
VL: EIVMTQSPDFQSVTPKEKVTITCRASQSIGNHLHWYQQKPDASPKLLIKYASQSISGVPSRFSGSGSGTDFTLTINSLEAEDAATYFCQQSYQWPLTFGQGTKLEIK
notes: Tested as whole humanized antibody produced in CHO cells and detected with anti-human IgG; the general methods speak of human IgG1/Kappa; also called clone 16-B-07
B2: humanized antibody 16-B-05 (antibody, V domains shown)
VH: B1 VH
VL: B1 VL with Q93N
notes: Tested as whole humanized antibody produced in CHO cells and detected with anti-human IgG; the general methods speak of human IgG1/Kappa; The printed LCVD reads SRESGSG where the printed cDNA encodes SRFSGSG; also called clone 16-B-05
B3: humanized antibody 16-B-03 (antibody, V domains shown)
VH: B1 VH with E57D
VL: B1 VL
notes: Tested as whole humanized antibody produced in CHO cells and detected with anti-human IgG; the general methods speak of human IgG1/Kappa; also called clone 16-B-03

Assays:
[1] = biological target: T1, endogenous human iRhom2; assay: cell-based or functional assay
[2] = biological target: T2, mouse iRhom2 full length wild type …; assay: FACS on MEF-DKO-miR2-FL-WT-T7 cells
Procedure: In brief, immortalized MEF-DKO-EV control cells, MEF-DKO-hiR2-FL-WT-T7 cells and MEF-DKO-miR2-FL-WT-T7 cells were harvested with 10 mM EDTA in PBS, washed and resuspended in FACS buffer (PBS, 3% FBS, 0.05% sodium azide), and seeded in Nunc U-bottom 96-well plates (Thermo Fisher Scientific, USA) at approximately 3×10⁵ cells per well. To pellet cells and remove supernatants, the plates were centrifuged at 1,500 rpm and 4° C. for 3 minutes. For primary staining, cells were resuspended in 100 μl per well of either FACS buffer alone (controls), mouse monoclonal anti-T7 IgG (Merck Millipore, USA) at 3 μg/ml FACS buffer or the humanized antibodies 16-B-03, 16-B-05, 16-B-07, 23-B-04, 42-B-02 and 42-B-04 of the invention also at 3 μg/ml FACS buffer and incubated on ice for 1 hour. Afterwards, plates were centrifuged at 1,500 rpm and 4° C. for 3 minutes and washed twice with 200 μl per well of FACS buffer. For secondary staining of previous anti T7 staining, cells were spun down and resuspended in 100 μl per well of PE-conjugated goat anti-mouse IgG F(ab′)2 detection fragment (Dianova, Germany) diluted 1:100 in FACS buffer. For secondary staining of previous staining with humanized antibodies of invention, cells were spun down and resuspended in 100 μl per well of PE-conjugated goat anti-human IgG F(ab′)2 detection fragment (Dianova, Germany) diluted 1:100 in FACS buffer. Protected from light, the cell suspensions were incubated on ice for 1 hour. Plates were then centrifuged at 1,500 rpm and 4° C. for 3 minutes and washed three times with 200 μl per well of FACS buffer. Finally, cells were resuspended in 150 μl per well of FACS buffer and analyzed using a BD Accuri™ C6 Plus flow cytometer (Becton Dickinson, Germany).

Binder	percent inhibition of LPS-induced release of TNFα from PBMCs from healthy donors (ELISA, antibody 3 µg/ml) [1] [%]	percent inhibition of LPS-induced release of TNFα from THP-1 cells (ELISA, antibody 3 µg/ml) [1] [%]	percent inhibition of PMA-induced release of HB-EGF from PBMCs from healthy donors (ELISA, antibody 3 µg/ml) [1] [%]	percent inhibition of PMA-induced release of HB-EGF from THP-1 cells (ELISA, antibody 3 µg/ml) [1] [%]	percent inhibition of PMA-induced release of HB-EGF from U-937 cells (ELISA, antibody 3 µg/ml) [1] [%]	percent inhibition of PMA-induced release of IL-6R from PBMCs from healthy donors (ELISA, antibody 3 µg/ml) [1] [%]	percent inhibition of PMA-induced release of IL-6R from THP-1 cells (ELISA, antibody 3 µg/ml) [1] [%]	percent inhibition of PMA-induced release of IL-6R from U-937 cells (ELISA, antibody 3.33 µg/ml) [1] [%]	percent inhibition of PMA-induced release of TGFα from PC3 cells (ELISA, antibody 10 µg/ml) [1] [%]	percent inhibition of PMA-induced release of TNFα from U-937 cells (ELISA, antibody 3.33 µg/ml) [1] [%]	binding result [2]
B1	72.8	77.2	66.5	80.5	99.2	75.4	75.6	77.5	3.3	90.3	no binding (tested: 3 µg/ml)
B2	73.5	78.7	74.8	83	99.7	79	74	81.7	23.8	89	no binding (tested: 3 µg/ml)
B3	74.2	75.1	69.7	80.2	99.2	75	75.6	79.6	15.9	89.8	no binding (tested: 3 µg/ml)
